We go through 9 molecules from patent publication US20240392020A1 (JIANGSU HENGRUI PHARMACEUTICALS, published 2024).

Usually Kd stands for the equilibrium constant for the complex coming apart. Usually koff stands for the rate constant with which the complex falls apart. A lower koff goes with a long-lived complex. For orientation: kon means the rate constant with which the complex forms. For orientation: EC50 means the concentration giving half of the maximal effect. Low readings indicate a more potent agent, high ones a less potent agent.

Assay [1] deals with T1, HJ-3-L1.
T1 construct: also called chain 3 of HJ-3
Nature of the assay: mass spectrometry of the product of four co-transfected chains of HJ-3; mispairing of heavy chain 2 with light chain 3.

In assay [2] the target is T2, hBAFF (human, UniProt Q9Y275 134-285).
T2 construct: bought
The experiment in a line: SPR Biacore T200, antibody captured on Protein A chip. On the technique in general: Surface plasmon resonance follows binding to a sensor surface in real time, without labels.

Assay [3] has as its target T2, hBAFF. Nature of the assay: ELISA.
For assay [4], the target named is T2, hBAFF. Nature of the assay: ELISA. The source holds these as a separate data set. (An ELISA detects its analyte on a solid surface through an enzyme-linked reagent.)
Assay [5] deals with T2, hBAFF. Nature of the assay: SPR Biacore T200, antibody captured on Protein A chip. The source holds these as a separate data set.
For assay [6], the target named is T2, hBAFF. Nature of the assay: SPR Biacore T200, BU5 captured, hBAFF injected after saturation with hP40.
The target of assay [7] is T3, hP40 (human, UniProt P29460 23-328).
T3 construct: bought
T3 sequence (looked up): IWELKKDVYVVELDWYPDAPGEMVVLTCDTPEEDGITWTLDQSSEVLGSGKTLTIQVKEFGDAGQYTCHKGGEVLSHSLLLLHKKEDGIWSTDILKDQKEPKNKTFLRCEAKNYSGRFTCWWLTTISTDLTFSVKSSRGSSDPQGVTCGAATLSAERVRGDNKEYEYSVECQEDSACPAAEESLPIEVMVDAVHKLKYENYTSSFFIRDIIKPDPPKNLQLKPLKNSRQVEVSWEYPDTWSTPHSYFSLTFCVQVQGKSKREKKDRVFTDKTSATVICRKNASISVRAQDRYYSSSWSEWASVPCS
The experiment in a line: SPR Biacore T200, BU5 captured, hP40 injected after saturation with hBAFF.

Assay [8] concerns the target T3, hP40. The experiment in a line: SPR Biacore T200, antibody captured on Protein A chip.
Assay [9] has as its target T4, HJ-3-H1 (heavy chain of H0, knob, CH1 replaced with T.10-L1).
T4 construct: single antibody chain, co-expressed
Nature of the assay: co-expression of three chains, mass spectrometry.

The target in assay [10] is T5, Heavy chain of D0 (Homo sapiens (Human), UniProt P0DOX5 1-449 = IgG part).
T5 construct: single antibody chain, co-expressed
The experiment in a line: co-expression in HEK293E cells, LC-MS for the mispaired molecule.

Assay [11] has as its target T6, HJ-2-L2.
T6 construct: also called chain 3 of HJ-2
The experiment in a line: mass spectrometry of the product of four co-transfected chains of HJ-2; mispairing of heavy chain 2 with light chain 3.

Assay [12] concerns the target T7, HJ-4-L2.
T7 construct: also called chain 3 of HJ-4
The experiment in a line: mass spectrometry of the product of four co-transfected chains of HJ-4; mispairing of heavy chain 2 with light chain 3.

The target of assay [13] is T8, human PDL1-his (human, UniProt Q9NZQ7 19-239).
T8 construct: bought; also called hPDL1
Nature of the assay: SPR Biacore T200, antibody captured, hPDL1 injected after saturation with TIGIT.

Assay [14] concerns the target T9, human TIGIT-his (human, UniProt Q495A1 22-141, limits assumed).
T9 construct: bought; also called hTIGIT
T9 sequence (looked up): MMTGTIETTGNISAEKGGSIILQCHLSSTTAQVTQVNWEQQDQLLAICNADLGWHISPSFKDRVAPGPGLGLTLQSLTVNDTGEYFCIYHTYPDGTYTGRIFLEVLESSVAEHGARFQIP
The experiment in a line: SPR Biacore T200, antibody captured, TIGIT injected after saturation with hPDL1.

Assay [15] addresses T9, human TIGIT-his. Nature of the assay: SPR Biacore T200, antibody captured on Protein A chip.
Assay [16] deals with T8, human PDL1-his. Described as above.
Assay [17] concerns the target T10, Heavy chain of U0 (with a knob modification).
T10 construct: single antibody chain, co-expressed; also called B-H2
Nature of the assay: co-expression (B/U-2), mass spectrometry.

In assay [18] the target is T11, Heavy chain of B0 (with a hole modification).
T11 construct: single antibody chain, co-expressed; also called B-H1 of B/U-2
Nature of the assay: co-expression (B/U-2), mass spectrometry.

Read-outs that look alike come from different tables or passages of the source.

T8 sequence (Q9NZQ7 19-239 limits assumed): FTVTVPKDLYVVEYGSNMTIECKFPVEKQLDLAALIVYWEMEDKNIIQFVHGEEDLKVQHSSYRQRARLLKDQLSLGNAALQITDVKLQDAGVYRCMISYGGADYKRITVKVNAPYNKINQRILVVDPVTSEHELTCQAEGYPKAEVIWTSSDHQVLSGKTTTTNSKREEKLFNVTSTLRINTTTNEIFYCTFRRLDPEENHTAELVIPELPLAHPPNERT
T10 sequence (heavy, as listed by the source): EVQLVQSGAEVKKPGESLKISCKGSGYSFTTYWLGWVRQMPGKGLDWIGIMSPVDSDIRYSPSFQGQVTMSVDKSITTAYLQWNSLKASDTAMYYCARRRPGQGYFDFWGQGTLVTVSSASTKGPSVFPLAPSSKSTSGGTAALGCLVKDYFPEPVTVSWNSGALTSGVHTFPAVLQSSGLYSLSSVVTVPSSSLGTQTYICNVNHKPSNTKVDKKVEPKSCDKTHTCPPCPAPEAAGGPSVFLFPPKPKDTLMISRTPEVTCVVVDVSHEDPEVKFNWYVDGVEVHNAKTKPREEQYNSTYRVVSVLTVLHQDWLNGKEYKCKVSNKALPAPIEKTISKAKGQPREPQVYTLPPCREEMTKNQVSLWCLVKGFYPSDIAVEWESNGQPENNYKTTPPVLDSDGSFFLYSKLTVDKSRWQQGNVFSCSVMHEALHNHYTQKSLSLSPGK
T6 sequence (light, as listed by the source limits assumed): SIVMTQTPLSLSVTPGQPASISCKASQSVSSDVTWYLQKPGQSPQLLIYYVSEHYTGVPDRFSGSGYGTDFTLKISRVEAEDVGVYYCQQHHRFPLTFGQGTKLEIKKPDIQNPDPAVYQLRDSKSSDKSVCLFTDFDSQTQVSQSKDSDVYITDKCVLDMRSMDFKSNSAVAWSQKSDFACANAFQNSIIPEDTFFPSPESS
T11 sequence (heavy, as listed by the source): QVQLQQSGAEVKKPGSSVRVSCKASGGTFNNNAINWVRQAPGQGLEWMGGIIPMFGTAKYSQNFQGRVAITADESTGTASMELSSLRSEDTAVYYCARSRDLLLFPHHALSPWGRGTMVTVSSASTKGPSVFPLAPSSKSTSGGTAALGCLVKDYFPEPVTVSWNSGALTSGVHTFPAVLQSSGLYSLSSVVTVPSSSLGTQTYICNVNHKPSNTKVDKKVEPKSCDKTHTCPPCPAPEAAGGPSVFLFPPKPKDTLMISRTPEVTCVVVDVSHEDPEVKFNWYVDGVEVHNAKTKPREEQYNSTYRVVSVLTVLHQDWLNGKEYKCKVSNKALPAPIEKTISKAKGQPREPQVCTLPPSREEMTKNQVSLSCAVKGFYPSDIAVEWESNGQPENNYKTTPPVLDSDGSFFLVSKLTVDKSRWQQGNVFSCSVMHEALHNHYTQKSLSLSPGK

B1: HJ-3-H2 (other)
heavy: EVQLVQSGAEVKKPGSSVKVSCKASGYTFSNYLIEWVRQAPGQGLEWIGVIDPGVGDTNYNENFKGRATLTADKSTSTAYIELSSLRSEDTAVYYCAREDNTGTAFDYWGQGTTVTVSSASTKGPSVFPLAPSSKSTSGGTAALGCLVKDYFPEPVTVSWNSGALTSGVHTFPAVLQSSGLYSLSSVVTVPSSSLGTQTYICNVNHKPSNTKVDKKVEPKSCDKTHTCPPCPAPEAAGGPSVFLFPPKPKDTLMISRTPEVTCVVVDVSHEDPEVKFNWYVDGVEVHNAKTKPREEQYNSTYRVVSVLTVLHQDWLNGKEYKCKVSNKALPAPIEKTISKAKGQPREPQVCTLPPSREEMTKNQVSLSCAVKGFYPSDIAVEWESNGQPENNYKTTPPVLDSDGSFFLVSKLTVDKSRWQQGNVFSCSVMHEALHNHYTQKSLSLSPGKDYKDDDDK
notes: also called chain 2 of HJ-3
On to B1, for which the binding result in assay [1] is “no binding”.

B2: Bmab (antibody, human IgG1, lambda)
heavy: not shown
light: SSELTQDPAVSVALGQTVRVTCQGDSLRSYYASWYQQKPGQAPVLVIYGKNNRPSGIPDRFSGSSSGNTASLTITGAQAEDEADYYCSSRDSSGNHWVFGGGTELTVLGQPKAAPSVTLFPPSSEELQANKATLVCLISDFYPGAVTVAWKADSSPVKAGVETTTPSKQSNNKYAASSYLSLTPEQWKSHRSYSCQVTHEGSTVEKTVAPTECS
notes: also called B0
Turning to B2, in [2], binding was characterised by a dissociation constant (Kd) of 0.864 nM, the off-rate constant (koff) is 0.000153 s⁻¹ and the kon came to 177000 M⁻¹ s⁻¹. This molecule came in with a 50% effective concentration (EC50) in assay [3] of 0.2 nM. Also, in [4], a half-maximal response (EC50) required 0.219 nM. In assay [5], this molecule registered a Kd of 0.855 nM, a koff of 0.000152 s⁻¹ and a kon of 177000 M⁻¹ s⁻¹.

B3: BU5 (bispecific antibody, human IgG1, kappa, L234A L235A)
heavy 1: QVQLQQSGAEVKKPGSSVRVSCKASGGTFNNNAINWVRQAPGQGLEWMGGIIPMFGTAKYSQNFQGRVAITADESTGTASMELSSLRSEDTAVYYCARSRDLLLFPHHALSPWGRGTMVTVSSGGGGSGIPPKIECLPIDISIDEGKVLTVASAFTGEPTPEVTWSTGGRKIHSQEQGRFHIENTDDLTTLIIKDVQKQDGGLYTLTLRNEFGSDSATVNIHIRSIDKTHTCPPCPAPEAAGGPSVFLFPPKPKDTLMISRTPEVTCVVVDVSHEDPEVKFNWYVDGVEVHNAKTKPREEQYNSTYRVVSVLTVLHQDWLNGKEYKCKVSNKALPAPIEKTISKAKGQPREPQVCTLPPSREEMTKNQVSLSCAVKGFYPSDIAVEWESNGQPENNYKTTPPVLDSDGSFFLVSKLTVDKSRWQQGNVFSCSVMHEALHNHYTQKSLSLSPGK
light 1: SSELTQDPAVSVALGQTVRVTCQGDSLRSYYASWYQQKPGQAPVLVIYGKNNRPSGIPDRFSGSSSGNTASLTITGAQAEDEADYYCSSRDSSGNHWVFGGGTELTVLGGGGSSGAPRFLTRPLAFVVSVGKDATLSSQIVGNPTPQVSWEKDKQPVTAGARFRLAQDGDLYRLKILDLQLSDSGQYVSRARNAIGEAFACLGLQVDAEA
heavy 2: not shown
light 2: not shown
With B3, the Kd is 0.537 nM in assay [6], 0.0661 nM in assay [7], 0.393 nM in [5] and 0.0664 nM in assay [8]. Moreover, the koff worked out at 8.44e-05 s⁻¹ in assay [6], 0.000104 s⁻¹ in assay [7], 7.62e-05 s⁻¹ in assay [5] and 0.000102 s⁻¹ in [8]. Besides, the kon in assay [6] is 157000 M⁻¹ s⁻¹; in assay [7], 1.57e+06 M⁻¹ s⁻¹; in assay [5], 194000 M⁻¹ s⁻¹; in assay [8] it was 1.54e+06 M⁻¹ s⁻¹.

B4: Light chain of J1 (other)
light: SIVMTQTPLSLSVTPGQPASISCKASQSVSSDVTWYLQKPGQSPQLLIYYVSEHYTGVPDRFSGSGYGTDFTLKISRVEAEDVGVYYCQQHHRFPLTFGQGTKLEIKRTVAAPSVFIFPPSDEQLKSGTASVVCLLNNFYPREAKVQWKVDNALQSGNSQESVTEQDSKDSTYSLSSTLTLSKADYEKHKVYACEVTHQGLSSPVTKSFNRGEC
notes: single antibody chain, co-expressed; also called HJ-1-L2; HJ-3-L2
Turning to B4, the binding result in [9] is listed as “no binding”.

B5: Light chain of I3 (other)
light: DIQMTQSPSSLSASVGDRVTITCRASQSISNNLNWYQQKPGKAPKLLIYYTSRFHSGVPSRFSGSGSGTDFTFTISSLQPEDIATYYCQQEHTLPYTFGQGTKLEIKSGAPRFLTRPLAFVVSVGKDATLSSQIVGNPTPQVSWEKDKQPVTAGARFRLAQDGDLYRLKILDLQLSDSGQYVSRARNAIGEAFACLGLQVDAEA
notes: single antibody chain, co-expressed
Turning to B5, the binding result in [10] is given as “no binding”.

B6: HJ-2-H1 (other)
heavy: EVQLVESGGGLVQPGGSLRLSCAASGFTFSHYYMAWVRQAPGKGLEWVTSISYEGDITYYGDSVKGRFTISRDNSKNTLYLQMNSLRAEDTATYYCASQTLRESFDYWGQGTLVTVSSASTKGPSVFPLAPSSKSTSGGTAALGCLVKDYFPEPVTVSWNSGALTSGVHTFPAVLQSSGLYSLSSVVTVPSSSLGTQTYICNVNHKPSNTKVDKKVEPKSCDKTHTCPPCPAPEAAGGPSVFLFPPKPKDTLMISRTPEVTCVVVDVSHEDPEVKFNWYVDGVEVHNAKTKPREEQYNSTYRVVSVLTVLHQDWLNGKEYKCKVSNKALPAPIEKTISKAKGQPREPQVCTLPPSREEMTKNQVSLSCAVKGFYPSDIAVEWESNGQPENNYKTTPPVLDSDGSFFLVSKLTVDKSRWQQGNVFSCSVMHEALHNHYTQKSLSLSPGKDYKDDDDK
notes: also called chain 2 of HJ-2
As for B6, the binding result in assay [11] is “no binding”.

B7: HJ-4-H1 (other)
heavy: B6 heavy
notes: also called chain 2 of HJ-4
B7: the binding result in assay [12] was “no binding”.

B8: P-O-T (bispecific antibody, human IgG1, kappa)
heavy: not shown
light 1: DIVLTQSPASLAVSPGQRATITCRASESVSIHGTHLMHWYQQKPGQPPKLLIYAASKLESGVPARFSGSGSGTDFTLTINPVEAEDTANYYCQQSFEDPLTFGQGTKLEIKGGGGSGIPPKIECLPIDISIDEGKVLTVASAFTGEPTPEVTWSTGGRKIHSQEQGRFHIENTDDLTTLIIKDVQKQDGGLYTLTLRNEFGSDSATVNIHIRSI
light 2: DIQMTQSPSSLSASVGDRVTITCRASENIYSYLAWYQQKPGKSPKLLIYNARTLAEGVPSRFSGSGSGTDFTLTISSLQPEDFATYYCQYHSGSPLPFGGGTKVEIKRTVAAPSVFIFPPSDEQLKSGTASVVCLLNNFYPREAKVQWKVDNALQSGNSQESVTEQDSKDSTYSLSSTLTLSKADYEKHKVYACEVTHQGLSSPVTKSFNRGEC
notes: also called anti-PDL1-TIGIT bispecific antibody in a (FabV)2-IgG form; PDL1-TIGIT bispecific antibody
As for B8, the equilibrium dissociation constant (Kd) in assay [13] was 0.0303 nM; in [14] it was 0.0954 nM; in [15] it was 0.097 nM; in [16], 0.0257 nM. Also, the off-rate (koff) was found to be 8.12e-05 s⁻¹ in assay [13], 0.00012 s⁻¹ in assay [14], 0.000123 s⁻¹ in [15] and 9.53e-05 s⁻¹ in [16]. Further, the kon in assay [13] is 2.68e+06 M⁻¹ s⁻¹; in assay [14] it was 1.26e+06 M⁻¹ s⁻¹; in assay [15], 1.27e+06 M⁻¹ s⁻¹; in assay [16], 3.71e+06 M⁻¹ s⁻¹.

B9: Chain formed by replacement of CL of light chain of B0 with O.20 (other)
light: SSELTQDPAVSVALGQTVRVTCQGDSLRSYYASWYQQKPGQAPVLVIYGKNNRPSGIPDRFSGSSSGNTASLTITGAQAEDEADYYCSSRDSSGNHWVFGGGTELTVLSGAPRFLTRPLAFVVSVGKDATLSSQIVGNPTPQVSWEKDKQPVTAGARFRLAQDGDLYRLKILDLQLSDSGQYVSRARNAIGEAFACLGLQVDAEA
notes: single antibody chain, co-expressed; also called B-L1 of B/U-1 and B/U-2
For the molecule B9, the binding result in assay [17] and in [18] was “no binding” in each case.
